These results are taken from patent publication US20230218753A1.

For assay [1], the target named is activated human complement C1s (UniProt P09871). Description: direct binding.
Assay [2] has the same target. Description: competition binding with 50 pM biotinylated TNT005.

Sequence of activated human complement C1s (P09871 16-688): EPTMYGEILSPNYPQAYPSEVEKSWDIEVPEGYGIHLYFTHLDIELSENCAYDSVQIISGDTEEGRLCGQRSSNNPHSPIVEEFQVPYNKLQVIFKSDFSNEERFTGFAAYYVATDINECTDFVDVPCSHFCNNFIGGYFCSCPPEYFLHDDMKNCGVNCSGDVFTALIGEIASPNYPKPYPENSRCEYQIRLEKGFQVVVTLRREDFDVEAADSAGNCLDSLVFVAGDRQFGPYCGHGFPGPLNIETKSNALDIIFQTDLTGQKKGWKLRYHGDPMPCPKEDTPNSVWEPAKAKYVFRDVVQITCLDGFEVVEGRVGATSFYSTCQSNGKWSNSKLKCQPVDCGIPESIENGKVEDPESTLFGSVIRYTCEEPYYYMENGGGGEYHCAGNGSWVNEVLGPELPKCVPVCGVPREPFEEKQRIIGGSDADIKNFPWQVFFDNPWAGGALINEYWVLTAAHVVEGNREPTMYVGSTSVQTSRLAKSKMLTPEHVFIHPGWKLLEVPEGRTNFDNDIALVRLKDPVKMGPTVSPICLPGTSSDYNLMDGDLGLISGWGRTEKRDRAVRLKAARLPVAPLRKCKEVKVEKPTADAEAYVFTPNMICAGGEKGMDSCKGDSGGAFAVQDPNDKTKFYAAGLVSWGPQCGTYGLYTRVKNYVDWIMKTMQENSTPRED

As a reminder, the EC50 is the concentration needed to bring the measured effect to its halfway point. The low end stands for higher potency in that assay, the high end for lower potency in that assay. As a reminder, the IC50 is the concentration that inhibits the measured activity by half. Lower therefore signals greater potency. With TNT005, the EC50 in assay [1] turned out to be 0.0559 nM. In assay [2], the IC50 stood at 0.0395 nM.
